In doi:10.1101/2025.11.18.25340485 (medRxiv, 2025):

Target: T1, WT-RBD (receptor-binding domain of the SARS-CoV-2 wild-type, Wuhan-Hu-1, spike protein) (SARS-CoV-2, UniProt P0DTC2)
T1 construct: not shown: His6, C-terminal, kept
Experiment: BLI
Conditions: both partners purified

B1: CC25.4 Fab (Fab, V domains shown)
VH: QVQLVQSGAEVKKPGASVKVSCKASGYTFTDYFLHWVRQAPGQGLEWMGWINPDSGGTNYAQRFQGRVTMTRDTSISTAYMEVSRLRSDDTAVYYCARDNERYQMQNYYHYYGMDVWGQGTTVTVVS
VL: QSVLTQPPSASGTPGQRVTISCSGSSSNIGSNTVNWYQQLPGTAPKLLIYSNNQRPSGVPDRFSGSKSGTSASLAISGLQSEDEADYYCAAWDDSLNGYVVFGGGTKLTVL
notes: also called class V antibody; source: ExpiCHO cells, co-transfected, purified (CaptureSelect CH1-XL, SEC)
Kd: 400 pM
